The source of these data is patent US20120288507A1 (Amgen, published 2012).

The target in test [1] is T1, human WISE N112A (human, UniProt Q6X4U4 24-206).
T1 construct: Alanine mutant of loop 2, used as supernatant of transiently transfected mammalian cells
T1 chain: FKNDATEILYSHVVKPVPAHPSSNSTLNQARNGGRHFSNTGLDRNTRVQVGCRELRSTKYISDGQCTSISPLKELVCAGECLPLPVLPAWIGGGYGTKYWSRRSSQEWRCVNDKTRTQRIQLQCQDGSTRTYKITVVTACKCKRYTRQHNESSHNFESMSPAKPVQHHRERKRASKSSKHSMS
Kind of test: capture ELISA, WISE mutant supernatant (FIG. 28). On the procedure:
(§1) Relative capture of individual WISE mutant proteins or wild type proteins by either neutralizing antibodies or non-neutralizing antibodies was compared to assess whether any of these single amino acid changes affects the binding of an antibody to WISE protein. The bound WISE proteins were then detected using HRP-conjugated affinity-purified polyclonal antibody against WISE.
(§2) Purified anti-WISE antibodies (0.5 ug/ml) were added onto high-binding ELISA plates pre-coated with 1 ug/ml of goat anti-mouse IgG Fc (Pierce). Plates were incubated for 1 hour in room temperature. Plates were then washed 4× with Wash Buffer. Subsequently alanine scanned WISE loop-2 mutant supernatants from transient transfection cultures (100× diluted) were added and incubated for 1 hour in room temperature. After 4× wash, rabbit anti-WISE Pab-biotin (50 ng/ml)+NeutrAvidin-HRP (Pierce, Cat #31001) were added onto the plates and incubated for 1 hour in room temperature. Plates were again washed 4× with Wash Buffer. Binding was analyzed using 1-Step Ultra TMB-ELISA substrate (Pierce; Cat #34028) according to the manufacturer's instructions.
Background: In an ELISA, binding on a coated surface is turned into a signal by an enzyme label.

The target in test [2] is T2, human WISE L110A (human, UniProt Q6X4U4 24-206).
T2 construct: Alanine mutant of loop 2, used as supernatant of transiently transfected mammalian cells
T2 chain: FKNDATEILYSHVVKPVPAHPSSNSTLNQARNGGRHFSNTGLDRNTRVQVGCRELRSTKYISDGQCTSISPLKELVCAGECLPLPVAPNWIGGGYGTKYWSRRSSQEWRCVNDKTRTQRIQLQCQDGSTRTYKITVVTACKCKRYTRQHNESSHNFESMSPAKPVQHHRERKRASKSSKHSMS
Kind of test: capture ELISA, WISE mutant supernatant (FIG. 28). On the procedure: as §1, §2

Test [3] addresses T3, human WISE G117A (human, UniProt Q6X4U4 24-206).
T3 construct: Alanine mutant of loop 2, used as supernatant of transiently transfected mammalian cells
T3 chain: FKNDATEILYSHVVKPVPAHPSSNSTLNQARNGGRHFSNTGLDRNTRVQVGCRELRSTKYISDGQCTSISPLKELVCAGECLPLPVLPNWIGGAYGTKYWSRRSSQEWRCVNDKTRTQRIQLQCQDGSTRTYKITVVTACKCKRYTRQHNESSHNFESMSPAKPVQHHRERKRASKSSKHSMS
Kind of test: capture ELISA, WISE mutant supernatant (FIG. 28). The protocol:
as §1, §2

The target in test [4] is T4, human WISE (human, UniProt Q6X4U4 24-206).
T4 construct: Recombinant protein secreted from mammalian cells; also called hWISE; huWISE
T4 sequence: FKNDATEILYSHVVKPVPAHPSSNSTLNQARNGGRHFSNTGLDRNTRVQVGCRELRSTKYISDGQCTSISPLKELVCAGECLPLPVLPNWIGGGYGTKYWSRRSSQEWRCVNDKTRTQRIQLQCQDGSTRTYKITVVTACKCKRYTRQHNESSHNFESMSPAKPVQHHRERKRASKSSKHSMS
Kind of test: capture ELISA binding profile (FIG. 28). The protocol: as §1, §2

Test [5] has as its target T4, human WISE. Kind of test: capture ELISA binding profile (FIG. 22). The protocol: as §1, §2
The target in the next test is T5, human WISE K121A (human, UniProt Q6X4U4 24-206).
T5 construct: Alanine mutant of loop 2, used as supernatant of transiently transfected mammalian cells
T5 chain: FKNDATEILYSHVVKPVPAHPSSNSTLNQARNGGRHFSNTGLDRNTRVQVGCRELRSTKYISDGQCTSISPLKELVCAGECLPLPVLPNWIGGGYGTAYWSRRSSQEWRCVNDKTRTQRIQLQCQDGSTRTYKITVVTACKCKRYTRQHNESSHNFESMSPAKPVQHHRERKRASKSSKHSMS
Briefly: capture ELISA, WISE mutant supernatant (FIG. 22). The protocol: as §1, §2

In another test the target is T6, human WISE I114A (human, UniProt Q6X4U4 24-206).
T6 construct: Alanine mutant of loop 2, used as supernatant of transiently transfected mammalian cells
T6 chain: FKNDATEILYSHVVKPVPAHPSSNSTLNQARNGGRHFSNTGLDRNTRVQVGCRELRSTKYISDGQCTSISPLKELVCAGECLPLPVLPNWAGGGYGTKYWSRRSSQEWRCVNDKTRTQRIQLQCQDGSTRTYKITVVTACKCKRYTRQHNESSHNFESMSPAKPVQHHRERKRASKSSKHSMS
Briefly: capture ELISA, WISE mutant supernatant (FIG. 22). The protocol:
as §1, §2

The target of test [6] is T1, human WISE N112A. Kind of test: capture ELISA, WISE mutant supernatant (FIG. 27). On the procedure: as §1, §2
For test [7], the target named is T2, human WISE L110A. Briefly: capture ELISA, WISE mutant supernatant (FIG. 27). On the procedure: as §1, §2
The target of test [8] is T3, human WISE G117A. Kind of test: capture ELISA, WISE mutant supernatant (FIG. 27). The protocol:
as §1, §2

B1: Ab-AF (antibody, V domains shown)
VH: QIQLVQSGPELKKPGETVKISCKASGYTFTDYSMHWVKQAPGKGLKWMGWINTETGEPTYADDFKGRFAFSLETSASTACLEINNLKNEDTATYFCSLTGYWGQGTSVTVSS
VL: DIQMTQSPASLSASVGETVTITCGASENIYGALNWYQRKQGKSPQVLIYGATNLADGMSSRFSGSGSGRQYSLKISSLHPDDVAMYYCQNVFSSPLTFGAGTKLELK
notes: Murine monoclonal antibody purified from hybridoma; also called WISE Loop 2 Mab (Ab-AF)
For B1, the binding result in the test with human WISE N112A [1], with human WISE L110A [2], with human WISE G117A [3] and in the test with human WISE [4] was “binds” each time.

B2: Ab-AG (antibody, V domains shown)
VH: QIQLVQSGPELKKPGETVKISCKASGYTFTDYSMHWVKQAPGKGLKWMGWINTETGEPTYAADFKGRFAFSLETSASTAYLQINNLKNEDTATYFCTLTGYWGQGTSVTVSS
VL: DIQMTQSPASLSASVGETVTITCGASENIYGALNWYQRKQGKSPQLLIFGATNLADGMSSRFSGSGSGRQYSLEISSLHPDDVATYYCQNLFNSPLTFGAGTKLDLK
notes: Murine anti-WISE monoclonal antibody; also called WISE Loop 2 Mab (Ab-AG)
In the case of B2, the binding result in the test with human WISE [5], with human WISE K121A and in the test with human WISE I114A was “binds” throughout.

B3: Ab-AJ (antibody, V domains shown)
VH: EVQLQQSGAELVRSGASVKLSCTASGFNIKDYYMHWVKQRPEQGLEWIGWIDPENGDTEYAPKFQGKATMTADTSSNTAYLQLSSLTSEDTAVYYCNFYDVYSEGALDYWGQGTSVTVSS
VL: DIVMSQSPSSLAVSAGEKVTMSCKSSQSLLNSRTRKNYLAWYQQKPGQSPKLLIYWASTRESGVPDRFTGSGSGTDFTLTISSVQAEDLAVYYCKQSYNLPTFGGGTKLEIK
notes: Murine anti-WISE monoclonal antibody; also called WISE Loop 2 Mab (Ab-AJ)
B3: the absorbance with human WISE N112A [6], with human WISE L110A [7] and in the test with human WISE G117A [8] was no more than 1.5 absorbance in each case.
